# Measurements: patent publication US20100233191A1
# Biological target: MPP1 (proaerolysin with the furin site replaced by the PSA substrate HSSKLQ) (Aeromonas hydrophila) (UniProt P09167)
# Experiment: cell-based or functional assay
substance,measurement,value
"Prostate-specific antigen (PSA), also referred as hK3 (from UniProt P07288 25-261) (enzyme)","LD50 (cell killing, Trypan Blue exclusion, PSA-producing LNCaP cells, 24 h)",100 pM
same,"fold difference in toxicity, PSA-producing versus non-PSA producing cells",500 fold
